# Measurements reported in the supplement of paper PMC5998384.
# Legend:
# HeLa Kyoto [1] = test: solubility in G1/S (NP-40 vs SDS abundance) (log2 ratio); higher = more soluble; conditions: cell cycle stage: G1/S
# HeLa Kyoto [2] = test: thermal stability score vs G1/S (z-score of summed log2 fold changes over temperatures); higher = more thermally stable than in G1/S
# HeLa Kyoto [3] = test: solubility change mitosis vs G1/S (difference of NP-40 vs SDS log2 ratios) (log2 ratio difference); higher = more soluble in mitosis
# HeLa Kyoto [4] = test: melting temperature (median over replicates), in situ; higher = more thermally stable
# [5] = cell cycle stage: early G1 (4.5 h after nocodazole release)
# 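Wherever melting temperature (median over replicates), in situ is given: HeLa Kyoto cells synchronized by double thymidine or nocodazole block, proteins quantified by TMT10plex mass spectrometry, three independent biological replicates.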
# 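Wherever solubility change mitosis vs G1/S (difference of NP-40 vs SDS log2 ratios) is given: synchronized HeLa Kyoto cells (double thymidine block for G1/S, nocodazole release for mitosis), protein amounts in NP-40 versus SDS lysates quantified by mass spectrometry, three biological replicates.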
# 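Wherever solubility in G1/S (NP-40 vs SDS abundance) is given: HeLa Kyoto cells arrested at G1/S by double thymidine block, proteins quantified by TMT10plex mass spectrometry in mild NP-40 versus SDS extracts, three biological replicates.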
# 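Wherever thermal stability score vs G1/S (z-score of summed log2 fold changes over temperatures) is given: synchronized HeLa Kyoto cells, proteins quantified by TMT10plex mass spectrometry, three biological replicates, mitosis taken 0.5 h after nocodazole release, G1/S directly after double thymidine block.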
Sequence,solubility in G1/S (log2) (HeLa Kyoto [1]),thermal stability score (HeLa Kyoto [2]; [5]),thermal stability score (HeLa Kyoto [2]; cell cycle stage: mitosis),solubility change mitosis (log2) (HeLa Kyoto [3]),melting temperature (HeLa Kyoto [4]; cell cycle stage: G1/S) [°C],melting temperature (HeLa Kyoto [4]; cell cycle stage: mitosis) [°C]
MSFRKVNIIILVLAVALFLLVLHHNFLSLSSLLRNEVTDSGIVGPQPIDFVPNALRHAVDGRQEEIPVVIAASEDRLGGAIAAINSIQHNTRSNVIFYIVTLNNTADHLRSWLNSDSLKSIRYKIVNFDPKLLEGKVKEDPDQGESMKPLTFARFYLPILVPSAKKAIYMDDDVIVQGDILALYNTALKPGHAAAFSEDCDSASTKVVIRGAGNQYNYIGYLDYKKERIRKLSMKASTCSFNPGVFVANLTEWKRQNITNQLEKWMKLNVEEGLYSRTLAGSITTPPLLIVFYQQHSTIDPMWNVRHLGSSAGKRYSPQFVKAAKLLHWNGHLKPWGRTASYTDVWEKWYIPDPTGKFNLIRRYTEISNIK [GLT8D1],0.144,3.31,5.82,0.024,53,53
MSFRKVVRQSKFRHVFGQPVKNDQCYEDIRVSRVTWDSTFCAVNPKFLAVIVEASGGGAFLVLPLSKTGRIDKAYPTVCGHTGPVLDIDWCPHNDEVIASGSEDCTVMVWQIPENGLTSPLTEPVVVLEGHTKRVGIIAWHPTARNVLLSAGCDNVVLIWNVGTAEELYRLDSLHPDLIYNVSWNHNGSLFCSACKDKSVRIIDPRRGTLVAEREKAHEGARPMRAIFLADGKVFTTGFSRMSERQLALWDPENLEEPMALQELDSSNGALLPFYDPDTSVVYVCGKGDSSIRYFEITEEPPYIHFLNTFTSKEPQRGMGSMPKRGLEVSKCEIARFYKLHERKCEPIVMTVPRKSDLFQDDLYPDTAGPEAALEAEEWVSGRDADPILISLREAYVPSKQRDLKISRRNVLSDSRPAMAPGSSHLGAPASTTTAADATPSGSLARAGEAGKLEEVMQELRALRALVKEQGDRICRLEEQLGRMENGDA [CORO1B],-0.0585,-0.395,-0.683,-0.0904,51.1,50.6
MSFVAYEELIKEGDTAILSLGHGAMVAVRVQRGAQTQTRHGVLRHSVDLIGRPFGSKVTCGRGGWVYVLHPTPELWTLNLPHRTQILYSTDIALITMMLELRPGSVVCESGTGSGSVSHAIIRTIAPTGHLHTVEFHQQRAEKAREEFQEHRVGRWVTVRTQDVCRSGFGVSHVADAVFLDIPSPWEAVGHAWDALKVEGGRFCSFSPCIEQVQRTCQALAARGFSELSTLEVLPQVYNVRTVSLPPPDLGTGTDGPAGSDTSPFRSGTPMKEAVGHTGYLTFATKTPG [TRMT61A],-0.0252,0.944,-0.546,-0.00636,55.4,57.5
MSGAEEAGGGGPAAGPAGSVPAGVGVGVGAGPGAAAGQAAAAALGEAAGPGLPDEAGLAGARQLQLQEAAGDPDAPPKKRLRAAEAAEAAAAAAAAGSGKLEERLYSVLCCTVCLDLPKASVYQCTNGHLMCAGCFIHLLADARLKEEQATCPNCRCEISKSLCCRNLAVEKAVSELPSECGFCLRQFPRSLLERHQKEECQDRVTQCKYKRIGCPWHGPFHELTVHEAACAHPTKTGSELMEILDGMDQSHRKEMQLYNSIFSLLSFEKIGYTEVQFRPYRTDDFITRLYYETPRFTVLNQTWVLKARVNDSERNPNLSCKRTLSFQLLLKSKVTAPLECSFLLLKGPYDDVRISPVIYHFVFTNESNETDYVPLPIIDSVECNKLLAAKNINLRLFLFQIQK [CYHR1],0.166,-1.75,-2.18,-0.0838,54,55
MSGASSSEQNNNSYETKTPNLRMSEKKCSWASYMTNSPTLIVMIGLPARGKTYVSKKLTRYLNWIGVPTKVFNLGVYRREAVKSYKSYDFFRHDNEEAMKIRKQCALVALEDVKAYLTEENGQIAVFDATNTTRERRDMILNFAEQNSFKVFFVESVCDDPDVIAANILEVKVSSPDYPERNRENVMEDFLKRIECYKVTYRPLDPDNYDKDLSFIKVINVGQRFLVNRVQDYIQSKIVYYLMNIHVQPRTIYLCRHGESEFNLLGKIGGDSGLSVRGKQFAQALRKFLEEQEITDLKVWTSQLKRTIQTAESLGVPYEQWKILNEIDAGVCEEMTYAEIEKRYPEEFALRDQEKYLYRYPGGESYQDLVQRLEPVIMELERQGNVLVISHQAVMRCLLAYFLDKGADELPYLRCPLHTIFKLTPVAYGCKVETIKLNVEAVNTHRDKPTNNFPKNQTPVRMRRNSFTPLSSSNTIRRPRNYSVGSRPLKPLSPLRAQDMQEGAD [PFKFB2],0.16,0.139,0.693,-0.071,53.9,53.3
MSGEDEQQEQTIAEDLVVTKYKMGGDIANRVLRSLVEASSSGVSVLSLCEKGDAMIMEETGKIFKKEKEMKKGIAFPTSISVNNCVCHFSPLKSDQDYILKEGDLVKIDLGVHVDGFIANVAHTFVVDVAQGTQVTGRKADVIKAAHLCAEAALRLVKPGNQNTQVTEAWNKVAHSFNCTPIEGMLSHQLKQHVIDGEKTIIQNPTDQQKKDHEKAEFEVHEVYAVDVLVSSGEGKAKDAGQRTTIYKRDPSKQYGLKMKTSRAFFSEVERRFDAMPFTLRAFEDEKKARMGVVECAKHELLQPFNVLYEKEGEFVAQFKFTVLLMPNGPMRITSGPFEPDLYKSEMEVQDAELKALLQSSASRKTQKKKKKKASKTAENATSGETLEENEAGD [PA2G4],-0.0146,-0.392,2,-0.108,51.5,52.1
